Measurements: patent US20240376221A1 (Genmab, published 2024)
Numbering of substitutions follows the chain as printed. In names and notes the source's numbering stands. Where two headings read alike, the source gives them in different places.

Experiments:
[1] = target: T1, His-tagged human recombinant FcγRIa (human, UniProt P12314 16-288); experiment: SPR, His-tagged FcγRIa captured on an anti-His chip, antibody injected
T1 construct: bought; also called FcγRIa (SPR); not shown: His-tag
Experimental: (§1) Biacore Series S Sensor Chips CM5 (Cytiva, cat. no. 29104988) were covalently coated with anti-His antibody using amine-coupling and His capture kits (Cytiva, cat. no. BR100050 and cat. no. 29234602) according to the manufacturer's instructions. […] After three start-up cycles of HBS-EP+ buffer, antibody samples were injected for 12 cycles per sample to generate binding curves using antibody concentration ranges of 0 to 3,000 nM for FcγRIa and 0 to 10,000 nM for the other FcγRs. […] Dissociation from the anti-His-coated surface was performed by regeneration of the surface using 10 mM Glycine-HCl pH 1.5 (Cytiva, cat. no. BR100354).

[2] = target: T1, His-tagged human recombinant FcγRIa; experiment: as above; remark: listed apart in the source
Experimental: as §1

[3] = target: T2, His-tagged human recombinant FcγRIIb (human, UniProt P31994 43-217); experiment: SPR, His-tagged FcγRIIb captured on an anti-His chip, antibody injected
T2 construct: bought; also called FcγRII2b [sic]; not shown: His-tag
T2 sequence (looked up): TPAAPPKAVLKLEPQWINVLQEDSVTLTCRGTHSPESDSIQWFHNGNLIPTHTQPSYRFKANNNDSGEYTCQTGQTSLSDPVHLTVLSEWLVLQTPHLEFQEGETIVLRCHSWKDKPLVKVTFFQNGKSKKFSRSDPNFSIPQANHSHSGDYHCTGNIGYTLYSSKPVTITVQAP
Experimental: as §1

[4] = target: T3, His-tagged human recombinant FcγRIIa 167-His (human, UniProt P12318 34-218); experiment: SPR, His-tagged FcγRIIa[H] captured on an anti-His chip, antibody injected
T3 construct: bought; also called FcγRIIa[H]; not shown: His-tag
T3 sequence (looked up): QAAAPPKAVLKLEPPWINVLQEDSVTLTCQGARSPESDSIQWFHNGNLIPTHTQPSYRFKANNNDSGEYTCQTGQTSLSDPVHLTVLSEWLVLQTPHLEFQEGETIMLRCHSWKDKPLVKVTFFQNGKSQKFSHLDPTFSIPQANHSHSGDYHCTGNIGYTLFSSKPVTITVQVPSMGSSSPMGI
Experimental: as §1

[5] = target: T4, His-tagged human recombinant FcγRIIa 167-Arg (human, UniProt P12318 34-218); experiment: SPR, His-tagged FcγRIIa[R] captured on an anti-His chip, antibody injected
T4 construct: bought; also called FcγRIIa[R]; not shown: His-tag
T4 sequence (looked up): T3 sequence (looked up) with H134R
Experimental: as §1

[6] = target: T5, His-tagged human recombinant FcγRIIIa 176-Phe (human, UniProt P08637 17-208); experiment: SPR, His-tagged FcγRIIIa[F] captured on an anti-His chip, antibody injected
T5 construct: bought; also called FcγRIIIa[F]; not shown: His-tag
Experimental: as §1

[7] = target: T6, His-tagged human recombinant FcγRIIIa 176-Val (human, UniProt P08637 17-208); experiment: SPR, His-tagged FcγRIIIa[V] captured on an anti-His chip, antibody injected
T6 construct: bought; also called FcγRIIIa[V]; not shown: His-tag
Experimental: as §1

[8] = target: T7, recombinant cynomolgus monkey OX40 (Acro Biosystems, cat. no. OXO-C5220) (cynomolgus monkey, UniProt P43489 29-216 (human entry), limits assumed); experiment: BLI, Ab on AHC sensor, OX40 analyte
T7 construct: bought soluble protein; also called Cyno OX40
T7 chain: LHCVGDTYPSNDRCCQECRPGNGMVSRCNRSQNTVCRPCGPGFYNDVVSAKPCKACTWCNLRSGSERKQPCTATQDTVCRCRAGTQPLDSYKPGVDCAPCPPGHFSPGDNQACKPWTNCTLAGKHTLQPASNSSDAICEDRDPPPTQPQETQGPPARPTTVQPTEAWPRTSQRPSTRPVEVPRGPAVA
Experimental: (§2) Experiments were carried out while shaking at 1,000 RPM at 30° C. […] Next, AHC sensors were loaded with antibody (1 μg/mL in Sample Diluent) for 600 s. After a baseline measurement in sample diluent (100 s), the association (200 s) and dissociation (1,000 s) of human OX40 (Acro Biosystems, cat. no. OXO-H5224), and cynomolgus monkey OX40 (Acro Biosystems, cat. no. OXO-C5220) was determined using a concentration range of 0.78 to 800 nM with 2-fold dilution steps.
(§3) Data were acquired using Data Acquisition Software v12.0 (Sartorius) and analyzed with Data Analysis Software v12.0 (Sartorius). Data traces were corrected per antibody by subtraction of the reference sensor. The Y-axis was aligned to the last 10 s of the baseline and Interstep Correction alignment to dissociation as well as Savitzky-Golay filtering were applied. Data traces with a response<0.05 nm were excluded from analysis. […] The data was fitted with the 1:1 model using a window of interest for the association of 200 s and dissociation times set at 50 s, 200 s and 1,000 s. The dissociation time was chosen based upon R² value, visual inspection of the curve and at least 5% signal decay during the dissociation step.

[9] = target: T8, human FcγRIa, cell surface-expressed (human, UniProt P12314 16-374); experiment: flow cytometry, ExpiCHO-S cells transfected with human FcγRIa
T8 construct: whole, on cells; also called CD64; FcγR1a on ExpiCHO-S cells

[10] = target: T7, recombinant cynomolgus monkey OX40 …; experiment: BLI, Ab on AHC sensor, OX40 analyte; * binding observed, less reliable fit
Experimental: as §2, §3

T1 sequence (P12314 16-288 limits assumed): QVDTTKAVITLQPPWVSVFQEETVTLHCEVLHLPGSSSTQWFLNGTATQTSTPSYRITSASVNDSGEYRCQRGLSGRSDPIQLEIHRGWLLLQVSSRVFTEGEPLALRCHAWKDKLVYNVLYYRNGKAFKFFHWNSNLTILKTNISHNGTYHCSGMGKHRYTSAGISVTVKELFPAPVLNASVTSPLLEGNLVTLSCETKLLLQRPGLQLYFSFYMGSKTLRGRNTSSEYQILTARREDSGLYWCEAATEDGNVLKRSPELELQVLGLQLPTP
T8 sequence (P12314 16-374): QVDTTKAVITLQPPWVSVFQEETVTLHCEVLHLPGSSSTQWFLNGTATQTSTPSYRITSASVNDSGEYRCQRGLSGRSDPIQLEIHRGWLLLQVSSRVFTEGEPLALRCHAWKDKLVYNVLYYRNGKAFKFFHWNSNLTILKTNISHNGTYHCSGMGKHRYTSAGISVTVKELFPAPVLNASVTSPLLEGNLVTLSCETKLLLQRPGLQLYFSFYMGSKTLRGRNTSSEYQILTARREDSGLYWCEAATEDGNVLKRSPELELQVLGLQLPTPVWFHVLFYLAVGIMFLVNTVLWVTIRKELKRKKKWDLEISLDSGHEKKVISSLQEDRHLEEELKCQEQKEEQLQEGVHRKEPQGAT
T5 sequence (P08637 17-208 limits assumed): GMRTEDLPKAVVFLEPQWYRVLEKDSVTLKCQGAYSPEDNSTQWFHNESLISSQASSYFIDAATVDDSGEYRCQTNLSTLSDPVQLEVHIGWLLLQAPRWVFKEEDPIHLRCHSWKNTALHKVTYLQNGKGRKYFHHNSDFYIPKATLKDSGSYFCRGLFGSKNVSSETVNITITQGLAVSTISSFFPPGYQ
T6 sequence (P08637 17-208 F176V limits assumed): as the sequence (P08637 17-208 limits assumed) above, with F160V counted along it

B1: IgG1-b12 (antibody)
heavy: not shown
VL: EIVLTQSPGTLSLSPGERATFSCRSSHSIRSRRVAWYQHKPGQAPRLVIHGVSNRASGISDRFSGSGSGTDFTLTITRVEPEDFALYYCQVYGASSYTFGQGTKLERK
notes: wild-type Fc domain; also called anti-HIV gp120 antibody IgG1-b12
EC50 (read off the curve) [1]: ~30 nM | EC50 (read off the curve) [2]: ~20 nM | binding result [3]: binds | binding result [4]: binds | binding result [5]: binds | binding result [6]: binds | binding result [7]: binds

B2: IgG1-CD134-007 (antibody)
heavy: not shown
light: AQVLTQTPSPVSAAVGGTVTISCQSSESVWNNNWLAWYQQKPGQPPNLLIYEASTLASGVSSRFKGSGSGTQFTLTVSEVQSDDAATYYCQGGYYDSSPIWTFGGGTEVVVKRTVAAPSVFIFPPSDEQLKSGTASVVCLLNNFYPREAKVQWKVDNALQSGNSQESVTEQDSKDSTYSLSSTLTLSKADYEKHKVYACEVTHQGLSSPVTKSFNRGEC
notes: rabbit-human chimeric IgG1
Kd [8]: 7.1 nM | koff [8]: 0.0018 s⁻¹ | kon [8]: 260000 M⁻¹ s⁻¹

B3: IgG1-CD134-003-HC6LC2 (antibody)
heavy: not shown
light: AAVLTQSPSSLSASVGDRVTITCQSSQIVVNNNFLSWYQQKPGKAPKLLIYDASNLASGVPDRFSGSGSGTDFTFTISSLQPEDIATYYCLGGYDDDAENAFGGGTKVEIKRTVAAPSVFIFPPSDEQLKSGTASVVCLLNNFYPREAKVQWKVDNALQSGNSQESVTEQDSKDSTYSLSSTLTLSKADYEKHKVYACEVTHQGLSSPVTKSFNRGEC
notes: variant of m1 without Fc mutations
binding result [9]: binds

B4: IgG1-CD134-003-HC6LC2-P329R-E345R (antibody)
heavy: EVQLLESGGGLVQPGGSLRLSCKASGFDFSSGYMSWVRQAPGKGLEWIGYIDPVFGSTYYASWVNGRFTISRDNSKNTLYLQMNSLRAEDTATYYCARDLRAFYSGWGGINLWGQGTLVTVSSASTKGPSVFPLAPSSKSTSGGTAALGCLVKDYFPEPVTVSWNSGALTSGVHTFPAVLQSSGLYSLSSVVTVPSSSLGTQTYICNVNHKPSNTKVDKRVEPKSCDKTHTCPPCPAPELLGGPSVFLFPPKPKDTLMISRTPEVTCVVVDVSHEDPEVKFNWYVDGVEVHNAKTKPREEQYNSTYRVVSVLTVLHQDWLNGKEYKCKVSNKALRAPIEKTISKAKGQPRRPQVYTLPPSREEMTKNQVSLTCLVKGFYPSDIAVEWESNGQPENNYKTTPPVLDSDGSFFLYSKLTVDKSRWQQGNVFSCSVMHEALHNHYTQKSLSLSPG
light: B3 light
notes: humanized; human IgG1 with P329R and E345R (Eu); also called IgG1-CD134-003-HC6LC2-RR
Kd [8]: 27 nM | koff [8]: 0.0029 s⁻¹ | kon [8]: 110000 M⁻¹ s⁻¹

B5: IgG1-CD134-003 (antibody)
heavy: not shown
light: AAVLTQTPSPVSAAVGGTVTIKCQSSQIVVNNNFLSWYQQKPGQPPKLLIYDASNLASGVPDRFSGSGSGTQFTLTISGVQSDDAATYYCLGGYDDDAENAFGGGTEVVVQRTVAAPSVFIFPPSDEQLKSGTASVVCLLNNFYPREAKVQWKVDNALQSGNSQESVTEQDSKDSTYSLSSTLTLSKADYEKHKVYACEVTHQGLSSPVTKSFNRGEC
notes: rabbit-human chimeric, wild-type IgG1 Fc
Kd [8]: 3.5 nM | koff [8]: 0.00096 s⁻¹ | kon [8]: 280000 M⁻¹ s⁻¹ | EC50 (read off the curve) [9]: ~0.7 µg/mL

B6: IgG1-CD134-012 (antibody)
heavy: not shown
light: DIVMTQTPASVEAAVGGTVTIKCQASENIYSSLAWYQQKPGQPPKLLIYRTSTLASGVPSRFKGSGSGTQFTLTISDLESDDAATYYCQSYYHNSGGGYDYGFGGGTEVVAKRTVAAPSVFIFPPSDEQLKSGTASVVCLLNNFYPREAKVQWKVDNALQSGNSQESVTEQDSKDSTYSLSSTLTLSKADYEKHKVYACEVTHQGLSSPVTKSFNRGEC
notes: rabbit-human chimeric IgG1
Kd [10]: 180 nM | koff [10]: 0.018 s⁻¹ | kon [10]: 98000 M⁻¹ s⁻¹
